Marks after values point to notes of the source that are not given here.
What was measured:
[1] = Size exclusion chromatography (SEC-UV) of Pelgifatamab TACs; assay type: physicochemical; conditions: SEC-UV of TAC after radiolabeling
Protocol: Purity of the TACs were determined by SEC-UV. The method separates higher aggregate, dimer and fragments from the ACC monomer. The separation was done using a Acquity UPLC Protein BEH SEC, 1.7 μm, 200 Å, 4.6×300 mm column operated at 30° C. The mobile phase was 170 mM Ammonium acetate and 300 mM NaCl containing 10% 2-propanol and 0.1 mM DCTA. The flowrate was 0.3 mL/min, and the ACCs were detected at UV 280 nm. The analysis was performed on an Agilent 1200 series HPLC with 35 μL injections.

[2] = Radiochemical purity (RCP) of Pelgifatamab TACs by iTLC; assay type: physicochemical; conditions: for RCP (radiochemical purity): iTLC after Ac-225 labeling at 2 MBq/mg, macropa at room temperature, DOTA at 60° C., one hour
Protocol: The mixture was incubated for one hour at room temperature for macropa-Pelgifatamab while the two DOTA-Pelgifatamab ACCs were incubated for one hour at 60° C. on a heating block. The RCP of the TACs was measured by instant thin layer chromatography using citrate buffer for elution, three replicates for each sample. […] The measurement of radioactivity was done with a Digital Gamma-Ray Spectrometer (DSPEC-50, Ortec). The activities were measured at least 6 hours after radiolabeling to allow daughter nuclides to be in equilibrium with Ac-225. […] Pelgifatamab-macropa and the PSMA binding antibody J591 conjugated with DOTA were both labeled with actinium-225. Labeling was performed at room temperature. J591-DOTA was also labeled at 60° C. Radiochemical purity was determined by instant thin-layer chromatography (iTLC). Labeled and free actinium-225 were counted in a germanium detector using actinium-225 specific energy lines. Actinium-225-labeling of pelgifatamab was efficient at room temperature as compared with actinium-225-labeling of the murine monoclonal PSMA antibody J591 (225Ac-J591, FIG. 8).

[3] = test system: PSMA-expressing prostate cancer xenograft model MDA PCa 2b; conditions: 72-504 hours
Protocol: Biodistribution of Ac-225-macropa-Pelgifatamab was investigated in the PSMA-expressing prostate cancer xenograft model MDA PCa 2b. Female RJ: NMRI-Foxn1nu/nu mice were implanted with testosterone pellets subcutaneously and were inoculated with 1×10^6 MDA PCa 2b cells on the right flank. Animals were pre-treated with 200 μg/mouse unspecific IgG2a antibody 24 hours prior to hot dosing. Animals were treated with 300 kBq/kg Ac-225-macropa-Pelgifatamab IV at a total protein dose of 0.75 mg/kg. In a separate in vivo study the xenograft model MDA PCa 2b was treated with 250 kBq/kg Ac-225-DOTA-Pelgifatamab at a protein dose of 0.14 mg/kg. In both studies, animals were sacrificed 72, 168, 336, and 504 hours post treatment and 225Ac in blood, tumor, liver, kidney, spleen and femur was determined.

[4] = test system: LNCaP prostate cancer model; assay: In vivo antitumor efficacy in LNCaP model; set-up: species or system mice; conditions: total antibody dose 0.75 mg/kg
Protocol: Antitumor efficacy of 225Ac-pelgifatamab was assessed in the LNCaP prostate cancer model: Male SCID mice (6 weeks, 22 g, Janvier Labs) were implanted s.c. with testosterone pellets (12.5 mg, 4 mm) and 1-3 days later, inoculated s.c. with 5×10^6 LNCaP cells. When the tumors reached an average size of 160 mm^3, mice were randomized (n=10 mice/group), and two days later, treated with vehicle or a single i.v. dose of ^225Ac-pelgifatamab (70, 125, or 250 kBq/kg, total antibody dose 0.75 mg/kg). The study was terminated on day 112 after tumor cell inoculation.

DU-145 cells = conditions: PSMA negative DU-145 cells, 5 days
Protocol: (§2) Cells were treated for 5 days and subsequentially cell viability was determined using CellTiterGlo (Promega).

C4-2 cells = conditions: 5 days
Protocol: as §2

KUCaP-1 tumors = assay: In vivo antitumor efficacy in KUCaP-1 model; set-up: species or system mice
Text: In a KUCaP-1 efficacy study, male scid/scid mice (8 weeks, 22 g, Janvier Labs) were implanted s.c. with 5×5×5 mm KUCaP-1 tumor fragments. When the tumors reached an average size of 220 mm^3, mice were randomized (n=9-10 mice/group), and the next day, treated with vehicle or a single i.v. injection of isotype control (300 kBq/kg, […] mg/kg). In addition, for one treatment group, tumors were allowed to reach a size of 470 mm^3, before treatment with a single dose of 300 kBq/kg ^225Ac-pelgi. The study was terminated on day 72 after tumor cell inoculation.

22Rv1 cells = 22Rv1 cells (printed 22R1), 5 days
Protocol: as §2

PC-3 cells = conditions: PSMA negative PC-3 cells, 5 days
Protocol: as §2

XRCC2 = assay: Gene expression by RT-qPCR in 22Rv1 cells; assay type: cell-based; conditions: 24 or 48 h
LNCaP cells = conditions: 5 days
Protocol: as §2

22Rv1 tumors = assay: In vivo efficacy in 22Rv1 prostate cancer model; set-up: species or system mice; conditions: 22Rv1, day 16
Protocol: The in vivo antitumor efficacy of 225Ac-pelgi in combination with darolutamide was evaluated in the androgen-independent prostate cancer model 22Rv1.

[5] = test system: C4-2 prostate cancer cells xenograft; assay: In vivo efficacy study in C4-2 xenograft; set-up: species or system mice; conditions: single dose IV 300 kBq/kg, total antibody dose 0.14 mg/kg
Protocol: The compounds Ac-225-macropa-Pelgifatamab, Ac-225-DOTA-Pelgifatamab and isotype-macropa were labeled with 225Ac. Mice xenografted with C4-2 prostate cancer cells were treated with a single dose IV of 300 kBq/kg with a total antibody dose of 0.14 mg/kg. […] Body weight loss was less than 10% for all targeted treatment groups. Effects on the hematopoietic system were determined by WBC counts at the end of the experiment (FIG. 16 (C)).

CDKN1A = assay: Gene expression by RT-qPCR in 22Rv1 cells; assay type: cell-based; conditions: 24 or 48 h
[6] = test system: PSMA expression in 22Rv1 tumors; assay: In vivo PSMA protein expression in 22Rv1 tumors by flow cytometry; set-up: species or system mice; conditions: isolated 22Rv1 tumors, darolutamide 100 mg/kg BID p.o. for 18 days
Protocol: In vivo expression of PSMA protein was evaluated in 22Rv1 prostate tumor-bearing male nude (nu/nu) mice treated with vehicle or darolutamide (100 mg/kg, BID, p.o) for 18 days. 22Rv1 tumors were extracted (n=2) and dissociated tumor cells were analyzed by flow cytometry using the J591 antibody.

[7] = test system: PSMA expression in 22Rv1 cells; assay: PSMA protein expression by flow cytometry; assay type: cell-based; conditions: androgen-independent 22Rv1 cells, 0.08-5 μM darolutamide for 7 days
Protocol: (§1) The effect of darolutamide and 225Ac-pelgifatamab on PSMA mRNA and protein expression in vitro was studied in VCaP and 22Rv1 prostate cancer cells. To assess PSMA protein expression, VCaP and 22Rv1 cells were treated with 0.08-5 μM darolutamide for 7 days and PSMA expression was determined by flow cytometry using the murine PSMA-specific monoclonal antibody (mAb) J591 (prepared in-house). To assess FOLH1 gene expression, 22Rv1 cells were treated with 2 μM darolutamide and/or 0.15 kBq/mL 225Ac-pelgifatamab for 24 or 48 h. RNA was extracted with the RNeasy Plus Mini Kit (Qiagen), transcribed to cDNA using SuperScript IV VILO Master Mix (Invitrogen), and analyzed by qPCR.

[8] = test system: PSMA expression in VCaP cells; assay: PSMA protein expression by flow cytometry; assay type: cell-based; conditions: androgen-dependent VCaP cells, 0.08-5 μM darolutamide for 7 days
Protocol: as §1

[9] = 300 kBq/kg IV, 0.75 mg/kg total protein

For Ac-225-DOTA-Pelgifatamab CAR 12.7, the Aggregate [1] was 30.5 Area % (UV), the Dimer [1] was 4.8 Area % (UV) and the Monomer [1] was 64.7 Area % (UV). For the same compound, the “RCP (radiochemical purity)” value [2] was 99.5%.

For Ac-225-macropa-Pelgifatamab, the “radioactivity in the liver compared with 225Ac-DOTA-Pelgifatamab” value [3] was “lower and over time decreasing radioactivity”, the “uptake in the spleen compared with 225Ac-DOTA-Pelgifatamab” value [3] was “less uptake” and the “accumulation in normal organs” value [3, 9] was “generally low and transient”. For the same compound, the “tumor accumulation of 225Ac” value [3, 9] was “strong and persistent tumor accumulation”, the “clearance from the bone compared with 225Ac-DOTA-Pelgifatamab” value ([3]; femur) was “improved clearance” and the “T/Cvolume (treatment/control) ratio” value ([4]; 70 kBq/kg single dose i.v.) was 0.00. The “T/Cvolume (treatment/control) ratio” value ([4]; 125 kBq/kg single dose i.v.) was 0.00, the “T/Cvolume (treatment/control) ratio” value ([4]; 250 kBq/kg single dose i.v.) was 0.00 and the cytotoxicity (DU-145 cells) was “little cytotoxicity”. The cytotoxicity (C4-2 cells) was “Strong cytotoxicity”, the T/Cvolume ratio (KUCaP-1 tumors; 75 kBq/kg single dose) was 0.55 and the T/Cvolume ratio (KUCaP-1 tumors; 150 kBq/kg single dose) was 0.44. For the same compound, the T/Cvolume ratio (KUCaP-1 tumors; 300 kBq/kg single dose) was 0.26, the “effect on large tumors” value (KUCaP-1 tumors; single dose 300 kBq/kg, tumors 470 mm^3 at treatment start) was “induced tumor regression” and the cytotoxicity (22Rv1 cells) was “Strong cytotoxicity”. The Dimer [1] was 0.5 Area % (UV), the Monomer [1] was 99.5 Area % (UV) and the cytotoxicity (PC-3 cells) was “little cytotoxicity”. For the same compound, the “RCP (radiochemical purity)” value [2] was 99.9%, the radiochemical purity ([2]; iTLC after radiolabeling at room temperature (FIG. 8)) was 100% and the “expression of XRCC2” value (XRCC2) was “decreased”. The cytotoxicity (LNCaP cells) was “Strong cytotoxicity”, the T/C (22Rv1 tumors; 75 kBq/kg, single dose, i.v.) was 0.71 and the T/C (22Rv1 tumors; 300 kBq/kg, single dose, i.v.) was 0.41 ***. For the same compound, the “antitumor activity compared with Ac-225-DOTA-Pelgifatamab” value [5] was “higher antitumor activity” and the “RNA expression of CDKN1A” value (CDKN1A) was “increased”.

In the case of `CC(O)c1cc(C(=O)N[C@@H](C)Cn2ccc(-c3ccc(C#N)c(Cl)c3)n2)[nH]n1` (some centres unmarked) [Darolutamide, darolutamide], the “increase in PSMA expression compared with vehicle” value [6] is reported as 50 fold, the “induction of PSMA expression” value [7] is reported as greater than 2 fold and the “induction of PSMA expression” value [8] is reported as “more than 10 fold”. For the same compound, the T/C (22Rv1 tumors; 100 mg/kg, BID, p.o.) was 0.78.

With Ac-225-DOTA-Pelgifatamab CAR 5.7 the Aggregate [1] was 18.4 Area % (UV), the Dimer [1] was 3.0 Area % (UV) and the Monomer [1] was 78.6 Area % (UV). The “RCP (radiochemical purity)” value [2] was 99.2%.

From patent US20250319216A1, “RADIOPHARMCEUTICAL COMPLEXES TARGETING PROSTATE-SPECIFIC MEMBRANE ANTIGEN AND ITS COMBINATIONS” (Bayer Aktiengesellschaft, priority 2022, published 2025)
